Our source for the stoichiometry N values is paper PMC8545432.

For experiment [1], the target named is AcrIIA22 2-amino acid C-terminal truncation mutant (thrombin-cleaved) (unnamed clostridial genus CAG-217 (human gut metagenome)). The experiment in a line: SEC; thrombin-cleaved AcrIIA22 variants; Superdex75 16/60; 25 mM Tris pH 7.5, 200 mM NaCl; size against protein standards. (In general: In gel filtration, larger molecules generally elute earlier.)
The target in experiment [2] is AcrIIA22 (thrombin-cleaved, from the N-terminal His6 construct) (unnamed clostridial genus CAG-217 (human gut metagenome)). The description is as above.

What is called stoichiometry N is the number of molecules, sites or subunits per partner or assembly. For the substance “AcrIIA22 2-amino acid C-terminal truncation mutant (thrombin-cleaved) (domain or fragment)”, the stoichiometry N in experiment [1] is 2. In turn, “AcrIIA22 (thrombin-cleaved, from the N-terminal His6 construct) (natural protein)” showed a stoichiometry N in experiment [2] of 4.
